Source: the supplement of paper PMC9170038

System: MS2 coat protein
Assay: apparent KD of MS2 coat protein; designed switch direction (-1 OFF switch, 1 ON switch): -1; higher = weaker reporter binding
In short: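 The reported apparent KD is a per-design median over clusters, from curve fits of normalised cluster fluorescence. Protein titrations used SNAP-549-labelled MS2 coat protein, doubled from 0.7 or 1.5 nM to 3 µM, in Tris-HCl pH 7.5 buffer with KCl, MgCl2, BSA, DTT, tRNA and Tween-20, with no input, 200 uM small-molecule ligand, or an oligonucleotide input. The RNA switches were transcribed on Illumina chips by stalled E. coli RNA polymerase.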

[1] = input ligand: microRNA oligo, concentration not stated
[2] = Eterna round: R95, input ligand: microRNA oligo, concentration not stated
[3] = Eterna round: R95, input ligand: FMN 200 uM
[4] = Eterna round: R95, input ligand: none

Sequence | apparent KD of MS2 coat protein [1] | apparent KD of MS2 coat protein (input ligand: FMN 200 uM) | apparent KD of MS2 coat protein (input ligand: none) | apparent KD of MS2 coat protein [2] | apparent KD of MS2 coat protein [3] | apparent KD of MS2 coat protein [4]
GAAAAGUCAGGAUAUGCAGAUAAAAAAACGAAAAAAAAUCUGCAGAAGGGACAUGAGGAUCACCCAUGUAAAAG [Mat - Exclusion 4 - Mayanna - D110] (Eterna round: R96, puzzle: Exclusion 4) | 29.1 nM |  |  |  |  | 
AACUGGACAGGAUAUGUUCUUGAGCACUUGAGGAUCACCCAAGUCAUCAAGAACUCAGGCACAGAAGGGUUUAUGA [jl-ex5.4.60 ViennaUCT mod] (Eterna round: R97, puzzle: Exclusion 5) |  | 28.9 nM | 13.4 nM |  |  | 
UACAUGAGGAUCACCCAUGUUUUGUCGUGUAUGGUAUUUAUCUAGGAUAUCAAUUUAGUUAAUUAUGAGAAGGAGAAUAUUAAU [JMF's solution 75] (Eterna round: R96, puzzle: Exclusion NG 3) | 28.9 nM |  |  |  |  | 
UUAUAAAGAGUGAGGAUAUGCUGGUCCUUGGAUCAGCAGAAGGCACAUGAGGAUCACCCAUGUAAAAUAAUAUU [Mat - Exclusion 4 - JL Mod - D40] (puzzle: Brourd's mod of Exclusion 4) |  |  |  | 25.4 nM |  | 
CCCGCAGGCUUUUUGCUCGACAUGAGGAUCACCCAUGUUGUAUGGGUUGUGUGUGUGUGGUGCAUAUAUAUGGUCCU [-25.6, -50.1 kcal, A 16%] (Eterna round: R97, puzzle: Sensor, turn-off variant 1) |  | 313 nM | 469 nM |  |  | 
ACAUGAGGAUCACCCAUGUAAUCAUGAUGGCUGAUGUAGAGUCAGGAUAUGUGUGGCUUUCUAUCGCAGAAGGGACAAGACUGG [Deportation 35 - Jieux - Exclusion NG 3] (Eterna round: R96, puzzle: Exclusion NG 3) | 37.7 nM | 45.6 nM | 43.4 nM |  |  | 
GGGCCCGGUGUGAGGAUAUUUCGAGUGAAAGCUUGAGAGAAGGCACAUGAGGAUCACCCAUGUAAGCCGGGCCC [-36.4, -34.3 kcal, A 26%, 1bis-0] (Eterna round: R97, puzzle: Brourd's mod of Exclusion 4) |  | 15.1 nM | 17.8 nM |  |  | 
GCAGCAUAGAUAACAGUCUGAUACAUGAGGAUCACCCAUGUACAGGAUAUGGUCUGGAUUACAGGCCAGAAGGGUACAAGCUGC [Eli exng3 - 014] (Eterna round: R96, puzzle: Exclusion NG 3) | 9.69 nM | 10.9 nM | 12.7 nM |  |  | 
AUAAAACGAGGAUAUGCUGGGCUUCUGUGAUGCAUAUGCUCACAUGAGGAUCACCCAUGUAGAAGGUGUAAAAU [Laaceve] (puzzle: Exclusion 2) |  |  |  | 220 nM |  | 
GACUCACAUGAGGAUCACCCAUGUUAGGAUAUAACCUCAUCAACAACGAUUUGGGAGGUUAGAAGGGAUGAUGG [Eternabot (L1) Solution 80] (Eterna round: R97, puzzle: Exclusion 1) |  | 110 nM | 89 nM |  |  | 
UCAUACGAUGAGGAUAUCUCCGUUAAAGUAUGUAGAGAAGGCGUUACAUGAGGAUCACCCAUGUUUGUGGGCAG [Ex-6 Malc#9] (Eterna round: R96, puzzle: Exclusion 6) | 250 nM |  |  |  |  | 
UACACCGCAUGAGGAUCAAACAUGAGGAUCACCCAUGUAUAGCAAGCUUUUUGCUCGUCUUAUAAAUAUGUGGUGUA [Electric Eye 8 - Jieux - Sensor, turn-off variant 1] (Eterna round: R97, puzzle: Sensor, turn-off variant 1) |  | 16.6 nM | 15.5 nM |  |  | 
CAUACACAUGAGGAUCACCCAUGUGAGGAUAUGCGUACGUAAUCCGUAGGAGACGUGCGCAGAAGGCGCGAGGU [Mat - Mod of JL D94] (puzzle: Exclusion 1) |  |  |  | 38.7 nM |  | 
AGCCACAGAGGAUAUACAUACAUCCAGUAGUAGAUACUACUACAUGAGGAUCACCCAUGUAGAAGGCUGUGGCA [Omei Ex2 BD B17] (Eterna round: R97, puzzle: Exclusion 2) |  | 603 nM | 162 nM |  |  | 
AAGCGACGAGGAUAUCGGUGGCUGAACAUGAGGAUCACCCAUGUGAACCGAUGGCAGUGUCGAGAAGGUGUUGAGU [Teceenla] (puzzle: Exclusion 5) |  |  |  | 12.3 nM |  | 
UUAAUUAAUUAAUUAUAAGAUCAACAUGAGGAUCACCCAUGUGAGGAUAUCAGCUCGUUUAGAGCUGAGAAGGCACAAAUAAUU [ExNG3/16-B2] (Eterna round: R96, puzzle: Exclusion NG 3) | 45.7 nM | 208 nM | 49.8 nM |  |  | 
ACAUGUUGCGCAGGAUAUGGGACACAUGAGGAUCACCCAUGUGGUUACAUGUCUUACCAAGCGUCCCAGAAGGGCGUGAACAUG [Ex NG2 #31] (Eterna round: R96, puzzle: Exclusion NG 2) | 18.4 nM | 28.6 nM | 22.1 nM |  |  | 

Sequence | apparent KD of MS2 coat protein [1] | apparent KD of MS2 coat protein (input ligand: FMN 200 uM) | apparent KD of MS2 coat protein (input ligand: none) | apparent KD of MS2 coat protein [2] | apparent KD of MS2 coat protein [3] | apparent KD of MS2 coat protein [4]
CUGCUGGAGCUUUGCUUUGGUCGUACAUGAGGAUCACCCAUGUAGGAUAUGGUAGGCUUUGCUUGCUAGAAGGAUAGAGUGGUC [salish99_ExNG3_r04_609] (Eterna round: R96, puzzle: Exclusion NG 3) | 77.5 nM | 197 nM | 88.8 nM |  |  | 
UUUUAAUAUGAAGGAUAUACUUAACAUGAGGAUCACCCAUGUGGUGUUGUGAGUGAGUGAGUUUAGUAGAAGGUCAAUUAUUUU [JMF's solution 25] (Eterna round: R96, puzzle: Exclusion NG 2) | 249 nM | 1020 nM | 405 nM |  |  | 
GAACGUGGUGAGGAUAUCCGGUCUAACGUGCCAGGAGAAGGCGCCACAUGAGGAUCACCCAUGUGGGUCCCGCC [EX6 B.9] (Eterna round: R97, puzzle: Exclusion 6) |  | 26 nM | 14.9 nM |  |  | 
UGAUCUAGCGGAGGAUAUACAUGAGGAUCACCCAUGUAAGUCGCCUUACCGUAGUGAAGCAUCAUGUAGAAGGCCGCUAGAUCU [MOD4 ENG2 3.62 by JL (unstable but ms2 present in dot)] (Eterna round: R96, puzzle: Exclusion NG 2) | 19.9 nM | 153 nM | 57.3 nM |  |  | 
AGAUGUACCUAGGAUAUCCGUCGAAUUGGACUAGGAGAAGGAGGUACAUGAGGAUCACCCAUGUAUGACUCCUG [Bemabice] (puzzle: Exclusion 6) |  |  |  | 10.1 nM |  | 
AAGAAACAUGAGGAUCACCCAUGUCAGGAUAUCUCGAAAAGCAUAGAAAUAUGCGAAGAGAGAAGGGACUGCCC [ChP Ext 10-04-2015 #2] (puzzle: Exclusion 1) |  |  |  | 19.3 nM | 20.8 nM | 19.2 nM
AUAAAUCAUGUAGGAUAUGCGUGGCGAAGCUAUGCAGAAGGACAUGAGGAUCACCCAUGUCUUUCCGUCUGCGUACAGACGGAA [Mat - Exclusion NG 1 - Mod of JL - D41] (Eterna round: R96, puzzle: Exclusion NG 1) | 23.6 nM | 289 nM | 24.5 nM |  |  | 
UUUAAUUUUUUUUUUUUACAAGCUUUUUGCUCGUCUUAUACAUGAGGAUCACCCAUGUGGGUGGAAGGUAAAUUAUC [JMF 70] (puzzle: Sensor v3, turn-off variant 2) |  |  |  | 26.7 nM | 79.4 nM | 176 nM
ACGUGGGCCCUUAGUGAACAUGAGGAUCACCCAUGUAACCACAAGGAUAUCUACGCCAGCACGCGAGAGAAGGUGUGAAAUAAU [Maorbetiza] (Eterna round: R96, puzzle: Exclusion NG 3) | 35.4 nM | 132 nM | 44.8 nM |  |  | 
UAUUCGCAAGUGAGAUCCCACAUGAGGAUCACCCAUGUGCUCGUCUUAUAAGGUACUGUGACGAUAGUCACGGUACC [Mat - Sensor, turn-off var - Eli Mod - D80] (Eterna round: R97, puzzle: Sensor, turn-off variant 1) |  | 30.9 nM | 32.5 nM |  |  | 
GCAGCUAACACAGAUAUGUGGACAUGAGGAUCACCCAUGUCACAGGAUAUGGACUGGAUUACAGUCCAGAAGGGUGAAUGCUGC [Zipper Style 5] (Eterna round: R96, puzzle: Exclusion NG 3) | 10.8 nM | 8.25 nM | 14.2 nM |  |  | 
GGUUGGCGAGGAUAUACAUGAGGAUCACCCAUGUGAGAGAAAGAAGUGAGGAAGAAAAGUAGAAGGUGCUGACG [salish99_ex3_r3_055] (puzzle: Exclusion 3) |  |  |  | 63.2 nM | 56.6 nM | 82.7 nM
GAUACCCAAGUCAGGAUAUCGGGAUACGAAAGUCACGAGAAGGGACAUGAGGAUCACCCAUGUAAAUAAAUAAA [Arege] (puzzle: Brourd's mod of Exclusion 4) |  |  |  | 31.1 nM | 62.7 nM | 33.2 nM
AGAUGUAGAUACCGGUCCUACAUGAGGAUCACCCAUGUAGCUAGACGUGCGGGCGGCGCUCGUCGGUCUACCAGUAG [salish99_TOv1_r3_099] (puzzle: Sensor v3, turn-off variant 1) |  |  |  | 30.7 nM | 30.2 nM | 37.7 nM
AUUAUAUAGACAGGAUAUUGAUUAUUAUUUUAACAUGAGGAUCACCCAUGUAACCUUAUGUGUAGCAAGAAGGGUCAUUUAUUA [Title] (Eterna round: R96, puzzle: Exclusion NG 2) | 81.8 nM |  |  |  |  | 
AUAAUGUAAGGAUAUCAGUCGACUAGCCUCGGCUAGUCGACUGAGAAGGUACAUGAGGAUCACCCAUGUGUUUC [E4/12-A3] (Eterna round: R97, puzzle: Exclusion 4) |  | 244 nM | 35.6 nM |  |  | 
